We go through one substance from publication PMC3954636.

The assay deals with hemagglutinin (HA) of human H7N9 influenza A virus A/Shanghai/2/2013 (influenza A virus A/Shanghai/2/2013 (H7N9)). The assay can be described thus: crystal structure.

As to “hemagglutinin (HA) of human H7N9 influenza A virus A/Shanghai/2/2013 (natural protein)”, the stoichiometry N (usually the number of molecules, sites or subunits per partner or assembly) turned out to be 3.
